Results taken from patent US20260217796A1 (NANJING GENSCRIPT BIOTECH, published 2026).

Each binder was assayed against T1, recombinant AAV2 virus-like particles (VLPs) of capsid proteins VP1, VP2 and VP3 (AAV2, UniProt P03135 1-735; P03135 139-735; P03135 203-735) (assay: indirect ELISA, plate coated with 1 ug/mL AAV2 VLP, 3-fold antibody dilutions from 1 ug/mL).
T1 construct: also called AAV2 VLP; antigen
T1 sequence (P03135 whole entry, chain 1 of 3): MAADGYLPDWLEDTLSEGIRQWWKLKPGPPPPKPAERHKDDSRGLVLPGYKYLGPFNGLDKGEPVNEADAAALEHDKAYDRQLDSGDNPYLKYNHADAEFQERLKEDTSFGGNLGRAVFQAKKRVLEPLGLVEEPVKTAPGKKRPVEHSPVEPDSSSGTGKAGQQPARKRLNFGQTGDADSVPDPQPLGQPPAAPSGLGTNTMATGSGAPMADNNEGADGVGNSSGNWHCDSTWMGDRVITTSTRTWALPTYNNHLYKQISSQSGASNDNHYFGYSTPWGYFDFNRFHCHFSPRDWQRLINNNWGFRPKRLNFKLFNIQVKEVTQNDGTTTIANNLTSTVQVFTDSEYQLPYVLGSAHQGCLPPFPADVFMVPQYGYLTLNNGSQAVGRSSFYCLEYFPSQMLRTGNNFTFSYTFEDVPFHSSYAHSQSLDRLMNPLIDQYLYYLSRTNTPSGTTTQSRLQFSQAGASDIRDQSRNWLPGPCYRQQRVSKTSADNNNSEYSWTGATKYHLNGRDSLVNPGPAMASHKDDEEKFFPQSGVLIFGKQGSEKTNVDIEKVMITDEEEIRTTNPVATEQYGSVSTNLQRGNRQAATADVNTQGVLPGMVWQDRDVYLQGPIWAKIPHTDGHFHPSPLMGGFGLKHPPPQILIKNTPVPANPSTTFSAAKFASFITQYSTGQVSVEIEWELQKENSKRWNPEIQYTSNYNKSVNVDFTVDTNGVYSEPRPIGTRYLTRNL
T1 sequence (P03135 139-735, tags left off, chain 2 of 3): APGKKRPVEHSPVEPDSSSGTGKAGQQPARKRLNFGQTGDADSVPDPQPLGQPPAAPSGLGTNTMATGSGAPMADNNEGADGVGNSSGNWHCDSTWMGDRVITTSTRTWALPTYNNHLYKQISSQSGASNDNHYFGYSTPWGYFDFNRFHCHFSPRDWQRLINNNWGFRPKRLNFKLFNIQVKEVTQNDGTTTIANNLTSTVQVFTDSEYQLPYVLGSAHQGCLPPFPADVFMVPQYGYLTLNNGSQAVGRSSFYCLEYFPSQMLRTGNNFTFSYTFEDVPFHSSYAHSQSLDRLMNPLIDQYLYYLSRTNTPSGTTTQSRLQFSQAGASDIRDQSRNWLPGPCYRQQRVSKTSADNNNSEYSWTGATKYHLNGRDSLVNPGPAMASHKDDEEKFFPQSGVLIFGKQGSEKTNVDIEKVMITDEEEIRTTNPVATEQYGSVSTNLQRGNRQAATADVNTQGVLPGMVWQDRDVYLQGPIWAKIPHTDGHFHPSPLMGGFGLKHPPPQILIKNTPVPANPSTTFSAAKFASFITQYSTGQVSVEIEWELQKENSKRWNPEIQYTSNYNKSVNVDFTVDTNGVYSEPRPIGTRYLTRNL
T1 sequence (P03135 203-735 limits assumed, chain 3 of 3): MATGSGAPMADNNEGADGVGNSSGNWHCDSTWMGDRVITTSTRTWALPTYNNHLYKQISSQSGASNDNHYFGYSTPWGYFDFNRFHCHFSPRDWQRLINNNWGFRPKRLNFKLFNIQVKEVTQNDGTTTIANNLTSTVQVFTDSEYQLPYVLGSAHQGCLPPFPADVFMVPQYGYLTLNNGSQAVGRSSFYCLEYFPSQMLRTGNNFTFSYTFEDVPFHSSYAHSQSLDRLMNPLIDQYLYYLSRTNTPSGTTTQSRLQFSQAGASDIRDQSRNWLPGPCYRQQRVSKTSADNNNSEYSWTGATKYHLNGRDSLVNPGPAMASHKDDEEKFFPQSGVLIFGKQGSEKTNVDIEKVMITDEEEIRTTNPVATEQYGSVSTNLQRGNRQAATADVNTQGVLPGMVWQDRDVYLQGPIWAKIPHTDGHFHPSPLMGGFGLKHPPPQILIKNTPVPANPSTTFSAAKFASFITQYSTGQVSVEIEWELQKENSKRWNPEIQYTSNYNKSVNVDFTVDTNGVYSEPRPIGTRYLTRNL

Binder	EC50 [ng/mL]
8H8-1 (antibody, V domains shown, Expressed recombinantly in ExpiCHO-S cells, purified on protein A as IgG and detected with anti-rabbit IgG (Fc-specific); also called anti-AAV2 rabbit monoclonal antibody 8H8-1; combination A) VH: QSLVESGGGLVQPEGSLTLTCTASGFSFSNVYYMCWVRQAPGKGPDWIACIYINADSTYYPSWATGRFTISKTSSTTVTLQMTSLTAADTATYFCARVAAYYDVYFNLWGPGTVVTVSS VL: AVVMTQTASPVSAAVGGTVTINCQASQSISSSYLSWYQQKPGQPPKLLIYYASILTSGVPSRFKGSGDGTEYSLTISGVQCDDAATYYCLYGRYSGASIDTVFGGGTEVVVK	1.46
15G4-4 (antibody, V domains shown, Expressed recombinantly in ExpiCHO-S cells, purified on protein A as IgG and detected with anti-rabbit IgG (Fc-specific); also called anti-AAV2 rabbit monoclonal antibody 15G4-4; combination B) VH: QSVEESGGRLVTPGTPLTLTCTVSGFSLNSYTVNWVRQAPGKGLEWIGFISGGSGITNYATWAKGRFTISKTSTTVDLKLPSPTTEDTATYFCARGRYPGYGGDDYEDYYFNLWGQGTLVTVSS VL: DVVMTQTQASVSAAVGGTVTIKCQASESIGSYLAWYQQKPGQPPRLLIYQASTLASGVSSRFKGSGSGTQFTLTISDLECDDAATYYCQGEFSCDGAHCNAFGGGTEVVVK	1.77
19E10-3 (antibody, V domains shown, Expressed recombinantly in ExpiCHO-S cells, purified on protein A as IgG and detected with anti-rabbit IgG (Fc-specific); also called anti-AAV2 rabbit monoclonal antibody 19E10-3; combination C) VH: QSLEESGGDLVKPGSSLTLTCTASRFSFSGDYDMCWVRQAPGKGLEWIACIGAGDAITYYTNWARGRFTITYTSSTTMTLQLTSLTVADTAAYFCAAGADFAFKLWGPGTLVTVSS VL: DIVMTQTPASVEAAVGGTVTIKCQASQSIMSLLAWYQQKPGQPPKLLIYEASKLASGVPSRFSGSGSGTQFTLTISDLECADAATYYCQGYVESSGRHYRFWAFGGGTEVVVK	3.94
33G5-3 (antibody, V domains shown, Expressed recombinantly in ExpiCHO-S cells, purified on protein A as IgG and detected with anti-rabbit IgG (Fc-specific); also called anti-AAV2 rabbit monoclonal antibody 33G5-3; Biotin-33G5-3) VH: QSVEESGGRLVTPGTPLTLTCTVSGIDLSSYAMSWVRQAPGKGLEWIGTINSDNYRYFGSWAKGRFTISKTSTTVDLKITSPTTEDTATYFCARQRGTSSGNAMDLWGPGTLVTVSS VL: DVVMTQTPASVSAALGGTVTIKCQASQSIGSYLNWYQQKPGQPPKLLIYAASTLAYGVSSRFRGSGSGTEFTLTISDLECADAATYYCQTYYISDSSSHVFGGGTEVVVK	1.62
